Assay results published in PMC10286996.
Where “and” joins values, the source holds several entries; their conditions need not be identical. Identical values can stand only once.

Biological target: slipper limpet hemocyanin (Crepidula fornicata) (Crepidula fornicata)
Experiment: cryo-EM structure; SLH (ion exchange flow-through) at 15 mg/ml, Chameleon grids, Glacios microscope, Relion 3.1; didecamer built with d5, tridecamer with c5 symmetry

- stoichiometry N: 20 and 30
Substance: slipper limpet hemocyanin (Crepidula fornicata) (natural protein)
